Measured values from article PMC7843029 (Cell, 2021).

Biological target: T1, RBD mouse Fc-tagged antigen (Sino Biological, Cat. No. 40592-V05H) (SARS-CoV-2, UniProt P0DTC2)
T1 construct: source: bought: Sino Biological
Assay: ELISA
Conditions: both partners purified

B1: S304 IgG (antibody, V domains shown)
VH: EVQLVESGGGLVQPGGSLRLSCAASGFTFSSYDMHWVRQTTGKGLEWVSTIGTAGDTYYPDSVKGRFTISREDAKNSLYLQMNSLRAGDTAVYYCARGDSSGYYYYFDYWGQGTLLTVSS
VL: DIQMTQSPSSLSAAVGDRVTITCRASQSIGSYLNWYQQKPGKAPKLLIYAASSLQSGVPSRFSGSGSGTDFTLTISSLQPEDFAIYYCQQSYVSPTYTFGPGTKVDIK
notes: copies: 2 + 2
binding result: binds
